Tests used:
[1] = target: Recombinant histidine-tagged EWSR1 (Ewing sarcoma breakpoint region 1 protein) (UniProt Q01844); test: BLI
EWSR1 [2] = target: T1, EWSR1 (UniProt Q01844 1-656); test: BLI; 2:1 binding model; settings: protein: recombinant; tags: N-terminal 6xHis (pET28a)
CHIKV nsP2 [3] = target: T2, CHIKV nsP2 (Chikungunya virus, UniProt Q8JUX6 536-1333); test: EMSA; polyIC; figure description says weak; settings: protein: recombinant; tags: His6-SUMO removed
CHIKV nsP2 [4] = target: T2, CHIKV nsP2; test: BLI; 2:1 binding model; settings: protein: recombinant; tags: His6-SUMO removed
EWSR1 [5] = target: T1, EWSR1; test: EMSA; settings: protein: recombinant; tags: N-terminal 6xHis (pET28a)
CHIKV nsP2 [6] = target: T2, CHIKV nsP2; test: EMSA; settings: protein: recombinant; tags: His6-SUMO removed
EWSR1 [7] = target: T1, EWSR1; test: EMSA; polyIC; settings: protein: recombinant; tags: N-terminal 6xHis (pET28a)
CHIKV nsP2 [8] = target: T2, CHIKV nsP2; test: EMSA; polyIC; settings: protein: recombinant; tags: His6-SUMO removed

T1 sequence (Q01844 whole entry): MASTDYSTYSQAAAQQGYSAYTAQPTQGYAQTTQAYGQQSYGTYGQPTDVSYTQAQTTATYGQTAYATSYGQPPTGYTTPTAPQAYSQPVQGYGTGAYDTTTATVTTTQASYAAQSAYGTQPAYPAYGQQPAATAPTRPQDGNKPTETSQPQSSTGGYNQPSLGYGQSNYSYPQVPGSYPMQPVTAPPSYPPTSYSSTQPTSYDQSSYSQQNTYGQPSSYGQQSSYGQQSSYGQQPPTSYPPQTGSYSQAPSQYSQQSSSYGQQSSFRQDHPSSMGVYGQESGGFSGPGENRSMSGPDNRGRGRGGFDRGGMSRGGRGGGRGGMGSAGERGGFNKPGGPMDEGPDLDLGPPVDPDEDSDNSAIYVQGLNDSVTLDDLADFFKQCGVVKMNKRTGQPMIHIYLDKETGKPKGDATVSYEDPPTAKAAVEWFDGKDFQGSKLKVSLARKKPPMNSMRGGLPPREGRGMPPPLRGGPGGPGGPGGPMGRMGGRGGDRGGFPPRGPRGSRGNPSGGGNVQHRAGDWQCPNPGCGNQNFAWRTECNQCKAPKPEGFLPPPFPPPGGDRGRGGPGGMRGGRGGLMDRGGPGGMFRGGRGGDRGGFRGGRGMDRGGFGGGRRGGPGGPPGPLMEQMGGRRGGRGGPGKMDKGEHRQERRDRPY
Chain of Recombinant histidine-tagged EWSR1 (Ewing sarcoma breakpoint region 1 protein) (Q01844 whole entry): as above

Full-length CHIKV nsP2 protein (recombinant) (from UniProt Q8JUX6 536-1333) (enzyme)
Kd [1]: 716 nM

UCUCUUGCUUUGCAGAGUAGAGCAGUAAGAAACUGGUAGGCUACGUGUGU (ssRNA) [5NCR-RC50]
Kd (EWSR1 [2]): 80.2 ± 0.39 nM
binding result (CHIKV nsP2 [3]): binds

UCCGAACCCACAGGGACGUAGGAGAUGUUAUUUUGUUUUUAAUAUUUC (ssRNA) [3NCR48]
Kd (EWSR1 [2]): 91.4 ± 0.37 nM
Kd (CHIKV nsP2 [4]): 92.9 ± 1.6 nM

GUGAUUCAGAGGUUUUUGACUUUAGUAAAUCGCCCAUCCUUUGAUAGA (ssRNA) [Random48]
binding result (EWSR1 [5]): no binding
binding result (CHIKV nsP2 [6]): binds

GUUUUUAAUAUUUC (ssRNA) [14-mer of 3NCR48]
binding result (EWSR1 [7]): binds
binding result (CHIKV nsP2 [8]): binds
